We go through one molecule from US20230250170A1.

Like-named read-outs stand apart in the source and are kept apart here.

The target in test [1] is human NPR1 on HEK293/hNPR1 cells (human) (UniProt P16066).
Test [2] has the same target. The source holds these as a separate data set.
Test [3] has the same target. This is another data set of the same source.
For test [4] the target is unchanged. The source holds these as a separate data set.

Chain of human NPR1 on HEK293/hNPR1 cells (human) (P16066 33-1061): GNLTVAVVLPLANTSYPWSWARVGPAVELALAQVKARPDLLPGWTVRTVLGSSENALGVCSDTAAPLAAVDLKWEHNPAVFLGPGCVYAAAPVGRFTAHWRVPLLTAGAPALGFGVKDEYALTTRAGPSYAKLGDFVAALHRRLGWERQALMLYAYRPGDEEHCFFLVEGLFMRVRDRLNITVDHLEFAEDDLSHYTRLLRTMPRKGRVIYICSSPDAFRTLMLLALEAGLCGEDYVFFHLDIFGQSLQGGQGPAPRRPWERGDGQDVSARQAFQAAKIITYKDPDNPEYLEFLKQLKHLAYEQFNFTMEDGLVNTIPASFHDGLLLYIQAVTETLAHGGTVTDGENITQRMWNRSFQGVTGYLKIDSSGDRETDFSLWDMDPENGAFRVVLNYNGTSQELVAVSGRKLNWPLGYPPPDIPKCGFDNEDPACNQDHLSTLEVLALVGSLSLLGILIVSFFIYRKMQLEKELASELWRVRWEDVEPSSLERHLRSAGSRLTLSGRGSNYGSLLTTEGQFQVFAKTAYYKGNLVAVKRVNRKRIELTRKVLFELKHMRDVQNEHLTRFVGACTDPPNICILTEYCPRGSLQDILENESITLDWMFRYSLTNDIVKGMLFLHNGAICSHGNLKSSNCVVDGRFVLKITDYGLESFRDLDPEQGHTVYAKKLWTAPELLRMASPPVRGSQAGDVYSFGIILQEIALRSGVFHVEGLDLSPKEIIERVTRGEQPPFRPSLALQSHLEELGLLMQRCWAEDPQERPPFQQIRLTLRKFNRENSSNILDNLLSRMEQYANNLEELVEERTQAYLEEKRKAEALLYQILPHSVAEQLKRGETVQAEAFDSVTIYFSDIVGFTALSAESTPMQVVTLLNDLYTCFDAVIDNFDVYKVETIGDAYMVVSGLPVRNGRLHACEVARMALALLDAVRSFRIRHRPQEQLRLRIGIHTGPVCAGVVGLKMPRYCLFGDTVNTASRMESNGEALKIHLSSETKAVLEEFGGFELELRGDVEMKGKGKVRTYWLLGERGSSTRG

With SLRRSSCFGGRMDRIGAQSGLGCNSFRY (ligand, UniProt P01160 124-151, looked up) [atrial natriuretic peptide (ANP)], in test [1], the EC50 (read off the curve); cGMP accumulation, HEK293/hNPR1 cells, ANP after pre-treatment with 50 nM H4H22034N came to 600 pM; the EC50 (read off the curve); cGMP accumulation, HEK293/hNPR1 cells, ANP after pre-treatment with 150 nM H4H22034N was found to be 600 pM; the EC50 (read off the curve); cGMP accumulation, HEK293/hNPR1 cells, ANP after pre-treatment with 450 nM H4H22034N was found to be 600 pM. For the same molecule, in test [2], the EC50 (read off the curve); cGMP accumulation, HEK293/hNPR1 cells, ANP after pre-treatment with 50 nM REGN7541 came to 200 pM; the EC50 (read off the curve); cGMP accumulation, HEK293/hNPR1 cells, ANP after pre-treatment with 150 nM REGN7541 was 800 pM; the EC50 (read off the curve); cGMP accumulation, HEK293/hNPR1 cells, ANP alone (dilution buffer) was determined as 70 pM. In test [3], the EC50 (read off the curve); cGMP accumulation, HEK293/hNPR1 cells, ANP after pre-treatment with 50 nM REGN7544 was 300 pM; the EC50 (read off the curve); cGMP accumulation, HEK293/hNPR1 cells, ANP after pre-treatment with 150 nM REGN7544 turned out to be 800 pM; the EC50 (read off the curve); cGMP accumulation, HEK293/hNPR1 cells, ANP after pre-treatment with 450 nM REGN7544 was 40000 pM; the EC50 (read off the curve); cGMP accumulation, HEK293/hNPR1 cells, ANP alone (dilution buffer) worked out at 100 pM. Further, in test [4], the EC50 (read off the curve); cGMP accumulation, HEK293/hNPR1 cells, ANP after pre-treatment with 50 nM REGN7548 worked out at 700 pM and the EC50 (read off the curve); cGMP accumulation, HEK293/hNPR1 cells, ANP alone (dilution buffer) is 90 pM.
